According to patent publication US20240117049A1 (Hoffmann-La Roche, published 2024):
Read-outs that look alike come from different tables or passages of the source. Blank lines part the entries; values can stand above or below the binder they belong to.

Key:
human OX40 on cells [1] = biological target: T1, human OX40 on cells (human, UniProt P43489 29-277); experiment: cell-based or functional assay
T1 sequence: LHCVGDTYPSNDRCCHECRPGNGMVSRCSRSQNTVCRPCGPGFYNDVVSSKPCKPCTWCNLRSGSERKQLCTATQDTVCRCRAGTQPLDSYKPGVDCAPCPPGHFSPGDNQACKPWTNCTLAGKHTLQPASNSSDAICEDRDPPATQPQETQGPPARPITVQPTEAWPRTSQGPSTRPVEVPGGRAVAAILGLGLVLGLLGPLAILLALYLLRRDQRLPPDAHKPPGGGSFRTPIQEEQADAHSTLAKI

human OX40 on cells [2] = biological target: T1, human OX40 on cells; experiment: cell-based or functional assay; remark: listed apart in the source
human OX40 on cells [3] = biological target: T1, human OX40 on cells; experiment: cell-based or functional assay; remark: listed apart in the source
human OX40 on cells [4] = biological target: T1, human OX40 on cells; experiment: cell-based or functional assay; remark: listed apart in the source
[5] = biological target: T2, human Fibroblast Activation Protein (FAP) expressed on cells (human, UniProt Q12884 1-760); experiment: flow cytometry, NIH/3T3-huFAP clone 19 cells
T2 construct: cell surface FAP on transfected HEK cells or NIH/3T3-huFAP clone 19 fibroblasts; also called huFAP; human FAP-transfected HEK cells

human OX40 on cells [6] = biological target: T1, human OX40 on cells; experiment: flow cytometry, activated human CD4+ T cells
[7] = biological target: T3, FcRn (biotinylated, coupled to streptavidin-sepharose); experiment: FcRn affinity chromatography, pH gradient, retention compared to standards
T3 construct: also called neonatal Fc receptor

[8] = biological target: T4, biotinylated recombinant human FAP (human, UniProt Q12884 27-760, biotinylated); experiment: SPR, stressed against unstressed sample, normalised to anti-hu IgG capture
T4 construct: the Biacore paragraphs only say biotinylated (recombinant) human FAP; also called biotinylated human FAP; recombinant huFAP

biotinylated human OX40 = biological target: T5, biotinylated human OX40 (human, UniProt P43489 29-214, limits assumed, biotinylated); experiment: as above
T5 sequence: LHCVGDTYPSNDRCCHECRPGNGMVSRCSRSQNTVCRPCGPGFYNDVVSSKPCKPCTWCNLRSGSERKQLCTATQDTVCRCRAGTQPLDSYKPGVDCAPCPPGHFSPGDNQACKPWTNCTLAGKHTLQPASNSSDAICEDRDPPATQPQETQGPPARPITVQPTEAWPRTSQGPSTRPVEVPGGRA

[9] = biological target: T4, biotinylated recombinant human FAP; experiment: SPR (Biacore), biotinylated recombinant FAP
[10] = biological target: T4, biotinylated recombinant human FAP; experiment: SPR (Biacore), biotinylated huFAP on CAP chip, Fab as analyte, 1:1 fit
[11] = biological target: T6, human DPP-IV expressed on transfected HEK cells (human, UniProt P27487 1-766); experiment: flow cytometry, human DPPIV-transfected HEK cells
T6 construct: whole, on cells; also called dipeptidyl peptidase IV
T6 sequence (P27487 whole entry): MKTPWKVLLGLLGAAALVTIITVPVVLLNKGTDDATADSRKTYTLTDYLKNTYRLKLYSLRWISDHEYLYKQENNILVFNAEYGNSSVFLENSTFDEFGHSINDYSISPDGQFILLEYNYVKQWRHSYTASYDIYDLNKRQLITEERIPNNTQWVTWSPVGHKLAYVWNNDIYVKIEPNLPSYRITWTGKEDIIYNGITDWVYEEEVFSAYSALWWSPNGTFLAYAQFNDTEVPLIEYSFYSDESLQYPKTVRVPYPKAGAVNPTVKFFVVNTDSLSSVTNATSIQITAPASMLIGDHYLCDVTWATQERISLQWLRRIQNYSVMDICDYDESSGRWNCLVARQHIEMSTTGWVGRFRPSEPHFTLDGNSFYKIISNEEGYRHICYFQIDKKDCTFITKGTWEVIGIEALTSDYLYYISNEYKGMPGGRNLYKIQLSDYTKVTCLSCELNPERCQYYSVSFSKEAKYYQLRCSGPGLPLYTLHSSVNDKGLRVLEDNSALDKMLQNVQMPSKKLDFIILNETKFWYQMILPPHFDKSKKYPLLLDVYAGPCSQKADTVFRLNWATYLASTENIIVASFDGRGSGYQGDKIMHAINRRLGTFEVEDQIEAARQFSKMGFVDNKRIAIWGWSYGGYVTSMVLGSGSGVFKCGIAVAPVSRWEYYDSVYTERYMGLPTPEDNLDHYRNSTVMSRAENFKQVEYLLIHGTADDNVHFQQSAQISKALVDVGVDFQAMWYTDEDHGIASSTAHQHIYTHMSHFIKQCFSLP

[12] = biological target: T2, human Fibroblast Activation Protein …; experiment: flow cytometry, FAP-transfected HEK cells
[13] = biological target: T7, cynomolgus FAP expressed on cells (cynomolgus); experiment: flow cytometry, FAP-transfected HEK cells
T7 construct: whole, on cells

[14] = biological target: biotinylated recombinant cynomolgus FAP (cynomolgus, UniProt Q12884 27-760 (human entry), limits assumed, biotinylated); experiment: SPR (Biacore), biotinylated recombinant FAP
[15] = biological target: T2, human Fibroblast Activation Protein …; experiment: flow cytometry, human FAP-transfected HEK cells
human OX40 on cells [16] = biological target: T1, human OX40 on cells; experiment: cell-based or functional assay; remark: listed apart in the source
human OX40 on cells [17] = biological target: T1, human OX40 on cells; experiment: cell-based or functional assay; remark: listed apart in the source
human OX40 on cells [18] = biological target: T1, human OX40 on cells; experiment: flow cytometry, activated human PBMC gated on CD8+ T cells (OX40 positive), FITC anti-human Fcγ secondary, MFI baseline corrected

EC50 of NFκB activation, HeLa_hOx40_NFkB_Luc1, w/ hu FAP+ fibroblasts (human OX40 on cells [1]): 0.2 nM | EC50 of NFκB activation, HeLa_hOx40_NFkB_Luc1, w/o crosslinking (human OX40 on cells [1]): 1.9 nM | EC50 of CD25 upregulation on CD4+ T cells, suboptimal TCR stimulation of human PBMC with FAP+ fibroblasts (human OX40 on cells [2]): 0.001 nM | EC50 of increased CEACAM5 TCB mediated cytokine secretion of human PBMC with FAP+ fibroblasts (human OX40 on cells [3]): 0.144 nM | EC50 of suppression of TGFβ-induced FoxP3 (FoxP3 MFI) on CD4+ CD25+ Treg cells, FAP-coated beads (human OX40 on cells [4]): 0.11 nM | EC50 [5]: 1.22 nM | EC50 (human OX40 on cells [6]): 1.64 nM | FcRn affinity (relative retention) [7]: -0.1 | binding activity [%] after 2 weeks at pH 6.0/40°C [8]: 99% | binding activity [%] after 2 weeks at pH 7.4/37°C [8]: 95% | binding activity [%] after 2 weeks at pH 6.0/40°C (biotinylated human OX40): 100% | binding activity [%] after 2 weeks at pH 7.4/37°C (biotinylated human OX40): 99%
B1: P1AF6454 OX40(CLC563) x FAP (1G1a_EPKSCD) (3 + 1) C-terminal crossfab fusion (bispecific antibody, human IgG1, kappa, L234A L235A)
heavy 1: not shown
heavy 2: not shown
light 1: not shown
light 2: EIVLTQSPATLSLSPGERATLSCRASESVDNYGLSFINWFQQKPGQAPRLLIYGTSNRGSGIPARFSGSGSGTDFTLTISSLEPEDFAVYFCQQSNEVPYTFGGGTKVEIKSSASTKGPSVFPLAPSSKSTSGGTAALGCLVKDYFPEPVTVSWNSGALTSGVHTFPAVLQSSGLYSLSSVVTVPSSSLGTQTYICNVNHKPSNTKVDKKVEPKSCD
notes: also called CLC-563, D-variant 3+1; 3+1 CLC563/H212-D

Kd [9]: 0.12 nM | Kd [10]: < 0.01 nM | koff [10]: < 1e-06 s⁻¹ | kon [10]: 1.06e+06 M⁻¹ s⁻¹
B2: P1AD9438_Fab, anti-FAP clone 212 Fab (Fab, V domains shown)
VH: EVLLQQSGPELVKPGASVKIACKASGYTLTDYNMDWVRQSHGKSLEWIGDIYPNTGGTIYNQKFKGKATLTIDKSSSTAYMDLRSLTSEDTAVYYCTRFRGIHYAMDYWGQGTSVTVSS
VL: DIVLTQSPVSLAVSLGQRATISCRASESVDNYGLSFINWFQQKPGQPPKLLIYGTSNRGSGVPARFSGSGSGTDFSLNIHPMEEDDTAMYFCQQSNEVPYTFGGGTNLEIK
notes: Fab; also called 212 free Fab

binding result [11]: no binding (tested: 10 µg/ml)
B3: anti-human FAP clone 212, hybridoma-derived murine antibody (antibody, V domains shown)
VH: B2 VH
VL: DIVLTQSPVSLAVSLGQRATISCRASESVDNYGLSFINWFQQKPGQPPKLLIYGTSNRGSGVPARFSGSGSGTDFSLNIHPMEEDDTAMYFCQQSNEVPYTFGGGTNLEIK
notes: mu IgG1

EC50 [12]: 0.12 µg/mL | EC50 [13]: 0.3 µg/mL | Kd [14]: 0.14 nM | EC50 [15]: 0.118 µg/mL
B4: P1AD9438, anti-FAP clone 212 as huIgG1 P329G LALA antibody (antibody, V domains shown)
VH: B2 VH
VL: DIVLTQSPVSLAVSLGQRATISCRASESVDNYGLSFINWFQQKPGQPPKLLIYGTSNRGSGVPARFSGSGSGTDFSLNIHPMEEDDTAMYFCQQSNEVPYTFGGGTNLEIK
notes: human IgG1 with P329G, L234A, L235A; also called 212 IgG

EC50 [12]: 2.8 µg/mL | Kd [9]: 0.62 nM | Kd [14]: 0.64 nM
B5: anti-FAP clone 212, C-terminal Fab fusion construct (Fc fusion)
chain 1: B2 VH
chain 2: not shown

EC50 of NFκB activation, HeLa_hOx40_NFkB_Luc1, w/ hu FAP+ fibroblasts (human OX40 on cells [16]): 0.24 nM | EC50 of NFκB activation, HeLa_hOx40_NFkB_Luc1, w/o crosslinking (human OX40 on cells [16]): 0.79 nM | AUC of CD25 upregulation compared to reference compound [%] (human OX40 on cells [17]): 100% | EC50 of CD25 upregulation on CD4+ T cells, suboptimal TCR stimulation of human PBMC with FAP+ fibroblasts (human OX40 on cells [17]): 0.04 nM | EC50 [5]: 2.52 nM | EC50 (human OX40 on cells [6]): 3.62 nM | FcRn affinity (relative retention) [7]: -0.14 | binding activity [%] after 2 weeks at pH 6.0/40°C [8]: > 90% | binding activity [%] after 2 weeks at pH 7.4/37°C [8]: > 90% | binding activity [%] after 2 weeks at pH 6.0/40°C (biotinylated human OX40): > 90% | binding activity [%] after 2 weeks at pH 7.4/37°C (biotinylated human OX40): > 90% | EC50 (read off the curve) (human OX40 on cells [18]): ~3 nM
B6: P1AE8874 OX40(CLC563) x FAP (1G1a) (3 + 1) C-terminal crossfab fusion (bispecific antibody, human IgG1, kappa, L234A L235A)
heavy 1: not shown
heavy 2: not shown
light 1: not shown
light 2: EIVLTQSPATLSLSPGERATLSCRASESVDNYGLSFINWFQQKPGQAPRLLIYGTSNRGSGIPARFSGSGSGTDFTLTISSLEPEDFAVYFCQQSNEVPYTFGGGTKVEIKSSASTKGPSVFPLAPSSKSTSGGTAALGCLVKDYFPEPVTVSWNSGALTSGVHTFPAVLQSSGLYSLSSVVTVPSSSLGTQTYICNVNHKPSNTKVDKKVEPKSC
notes: also called CLC-563 3+1

EC50 of NFκB activation, HeLa_hOx40_NFkB_Luc1, w/ hu FAP+ fibroblasts (human OX40 on cells [16]): 0.21 nM | AUC of CD25 upregulation compared to reference compound [%] (human OX40 on cells [17]): 99% | EC50 of CD25 upregulation on CD4+ T cells, suboptimal TCR stimulation of human PBMC with FAP+ fibroblasts (human OX40 on cells [17]): 0.06 nM | EC50 [5]: 2.51 nM | EC50 (human OX40 on cells [6]): 3.19 nM | EC50 (read off the curve) (human OX40 on cells [18]): ~2 nM
B7: P1AE8871 OX40(CLC563) x FAP (1G1a) (2 + 1) C-terminal crossfab fusion (bispecific antibody, human IgG1, kappa, L234A L235A)
heavy 1: not shown
heavy 2: not shown
light 1: not shown
light 2: B6 light 2
notes: also called CLC-563 2+1

EC50 [15]: 0.089 µg/mL
B8: anti-FAP antibody 4B9 (antibody, V domains shown)
VH: EVQLLESGGGLVQPGGSLRLSCAASGFTFSSYAMSWVRQAPGKGLEWVSAIIGSGASTYYADSVKGRFTISRDNSKNTLYLQMNSLRAEDTAVYYCAKGWFGGFNYWGQGTLVTVSS
VL: EIVLTQSPGTLSLSPGERATLSCRASQSVTSSYLAWYQQKPGQAPRLLINVGSRRATGIPDRFSGSGSGTDFTLTISRLEPEDFAVYYCQQGIMLPPTFGQGTKVEIK
notes: made as in WO 2012/020006; also called FAP clone 4B9; AlexaFluor647-labeled anti FAP antibody 4B9
